Data as given in patent US20250042994A1 (HAINAN SIMCERE ZAIMING PHARMACEUTICAL, published 2025).

Experiments:
[1] = biological target: T1, human CD19 exon1-3-His tag protein (human, UniProt P15391 20-186, limits assumed); test: ELISA on coated human CD19 exon 1-3-His
T1 construct: membrane-distal part of the extracellular region, made in HEK293E cells; not shown: His tag
T1 sequence (looked up): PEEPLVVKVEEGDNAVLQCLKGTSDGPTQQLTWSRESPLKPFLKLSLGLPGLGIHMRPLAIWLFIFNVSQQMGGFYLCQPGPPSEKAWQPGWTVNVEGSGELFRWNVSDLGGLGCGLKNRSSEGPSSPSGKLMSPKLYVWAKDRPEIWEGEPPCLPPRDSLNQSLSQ
Procedure: Human CD19-his protein (purchased from ACROBiosystems, catalog number: CD9-H52H2) was diluted with PBS to a final concentration of 4 μg/mL, and then added to a 96-well ELISA plate at 100 μl/well. The plate was sealed with a plastic film and incubated overnight at 4° C., the plate was washed 2 times with PBS the next day, and then a blocking solution [PBS+2% (w/w) BSA] was added for blocking at room temperature for 2 h. The blocking solution was poured off, and 100 nM gradiently diluted CD19 chimeric antibody or control antibody was added at 50 μl/well. After incubation at 37° C. for 2 h, the plate was washed 3 times with PBS. […] TMB substrate was added at 50 μl/well, and incubated at room temperature for 10 min, and then a stop solution (1.0 N HCl) was added at 50 μl/well. The OD450 nm values were read by an ELISA microplate reader (Multimode Plate Reader, EnSight, purchased from Perkin Elmer).
CD19 protein contains 4 exons in the extracellular region, in which exons 1-3 are located at the membrane-distal end and exon 4 is located at the membrane-proximal end. […] To identify the distribution of antigen binding epitopes of the chimeric antibodies, human CD19 exon 1-3-His (membrane-distal end) was used to coat at 2 μg/mL according to the ELISA method in example 5.1.

Human CD19-his protein = biological target: T2, Human CD19-his protein (human, UniProt P15391 20-291); test: SPR Biacore, Ab captured on Protein A, CD19-His analyte
T2 construct: bought protein; also called recombinant human CD19-His; CD19 full-length protein; not shown: His tag
T2 sequence (looked up): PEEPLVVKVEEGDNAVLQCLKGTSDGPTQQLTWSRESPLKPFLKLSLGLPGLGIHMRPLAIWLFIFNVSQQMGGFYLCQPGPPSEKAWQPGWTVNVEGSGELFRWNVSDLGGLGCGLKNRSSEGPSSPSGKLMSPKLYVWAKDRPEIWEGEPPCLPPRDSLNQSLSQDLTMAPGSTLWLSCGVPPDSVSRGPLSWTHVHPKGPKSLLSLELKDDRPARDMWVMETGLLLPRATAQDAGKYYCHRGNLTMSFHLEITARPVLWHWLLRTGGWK
Procedure: A sample buffer and a running buffer were HBS-EP+ (10 mM HEPES, 150 mM NaCl, 3 mM EDTA and 0.05% surfactant P20) (GE Healthcare; BR-1006-69). The flow-through cell was set to 25° C. The sample block was set to 16° C. Both were pretreated with the running buffer. In each cycle, an antibody to be detected was first captured with a Protein A chip, and then a single concentration of CD19 antigen protein was injected. The binding and dissociation processes of the antibody and the antigen protein were recorded, and finally Glycine pH 1.5 (GE Healthcare; BR-1003-54) was used to complete chip regeneration. The binding was measured by injecting different concentrations of recombinant human CD19-His proteins in a solution for 240 s with a flow rate of 30 μl/min. The concentration started from 200 nM (see the detailed results for the actual concentration in the test) and was diluted at 1:1, making a total of 5 concentrations. The dissociation phase was monitored for up to 600 s and was triggered by switching from sample solution to running buffer. The surface was regenerated by washing with a 10 mM glycine solution (pH 1.5) for 30 s at a flow rate of 30 μl/min. Bulk refractive index difference was corrected by subtracting the response obtained from the goat anti-human Fc surface. Blank injection was also subtracted (=double reference). For calculation of apparent KD and other kinetic parameters, Langmuir 1:1 model was used.

B1: F6.2.9 (antibody, human IgG1, V domains shown)
VH: QVQLQQSGAELVKPGASVKISCKASGYAFSSYWMNWVKQRPGKGLEWIGQIYPGDGDTNYNGKFKGKATLTADKSSSTGYMQLSSLTSEDSAVYFCARSRITSVVDWYFDVWGTGTTVTVSS
VL: QIVLSQSPAILSASPGEKVTMTCRASSSVSYMHWYQQKPGSSPKPWIYATSNLASGVPARFSGSGSGTSYSLTISRVEAEDAATYYCQQWSSNPPTFGAGTKLELK
notes: human-murine chimeric antibody, human IgG1 constant
In the case of B1, the binding result [1] is reported as “no binding (tested: 100 nM)”, the Kd (Human CD19-his protein) is reported as 21.7 nM and the koff (Human CD19-his protein) is reported as 0.0033 s⁻¹. The kon (Human CD19-his protein) was 152000 M⁻¹ s⁻¹.

B2: F6.5.20 (antibody, human IgG1, V domains shown)
VH: QVQLQQPGAELVKPGASVKLSCKASGYTFTSYWMQWVKQRPGQGLEWIGEIDPSDSYTNYNQKFKGKASLTVDTSSSTAYMQLSSLTSEDSAVYYCARWGLLRNYYVMDYWGQGTSVTVSS
VL: EIVLTQSPTTMAASPGEKITITCSASSSISSNYLHWYQQKPGFSPKLLIYRTSNLASGVPARFSGSGSGTSYSLTIGTMEAEDVATYYCQQGSSIPRMLTFGAGTKLELK
notes: as for B1
With B2 the binding result [1] was “no binding (tested: 100 nM)”, the Kd (Human CD19-his protein) was 5.28 nM and the koff (Human CD19-his protein) was 0.00187 s⁻¹. For the same binder, the kon (Human CD19-his protein) was 355000 M⁻¹ s⁻¹.

B3: F6.12.12 (antibody, human IgG1, V domains shown)
VH: DVQLQESGPGLVKPSQSLSLTCSVTGYSITSGYYWIWIRQFPGNKLEWMGYISYDASNKYKPSLKNRISITRDTSKNQFFLKLNSVTAEDTATYFCAREDLRGYFDVWGTGTSVTVSS
VL: DIVLTQSPASLAVSLGRRATISCRASQSVSTSGFSYMHWYQQKPGQPPNLLIKYASILQSGVPARFSGSGSGTDFILNIHPVEDVDTATYYCQHSWGIPFTFGSGTKLEIK
notes: as for B1
With B3 the binding result [1] was “no binding (tested: 100 nM)”, the Kd (Human CD19-his protein) was 1.46 nM and the koff (Human CD19-his protein) was 0.000245 s⁻¹. The kon (Human CD19-his protein) was 167000 M⁻¹ s⁻¹.

B4: F1-mab003 (antibody, human IgG1, V domains shown)
VH: EVQLQQSGPELVKPGASVKMSCKASGYTFTDYVMHWVRQTPGQGLEWIGYFNPYNDGTNYNEKFKVKATLTSDKSSTTAYMELSSLTSEDSAVYYCARGVYYYGRDFDYWGQGTTLTVSS
VL: DVVLTQTPLSLPVSLGDQASISCRSSQSLENSNGNSYLNWYLQKPGQSPQLLIYRVSNRFSGVLDRFSGSGSGTDFTLKISRVEAEDLGVYFCLQITHVPWTFGGGTKLEIK
notes: as for B1
In the case of B4, the binding result [1] is reported as “no binding (tested: 100 nM)”, the Kd (Human CD19-his protein) is reported as 0.247 nM and the koff (Human CD19-his protein) is reported as 0.000111 s⁻¹. It also gave a kon (Human CD19-his protein) of 450000 M⁻¹ s⁻¹.

B5: F2.15.26 (antibody, human IgG1, V domains shown)
VH: QVQLKESGPGLVAPSQSLSITCTVSGFSLTDYGVSWIRQSPGKGLEWLGVIWGSGDTYYNSVLESRLSINKDNSKNQVFLKMNSLQTDDAAMYFCAKHSYYGGSFAMDYWGQGTSVTVSS
VL: DIQMTQTTSSLSASLGDRVTISCRASQDISNYLNWYQQKPDGTVKLLIYYTSRLHSGVPSRFSGSGSGTDYSLTISNLEQEDIATYFCQQGKTLPWTFGGGTKLEIK
notes: as for B1
For B5, the binding result [1] was “no binding (tested: 100 nM)”, the Kd (Human CD19-his protein) was 0.839 nM and the koff (Human CD19-his protein) was 0.000229 s⁻¹. It also gave a kon (Human CD19-his protein) of 273000 M⁻¹ s⁻¹.

B6: F3.3.10 (antibody, human IgG1, V domains shown)
VH: DVQLQESGPGLAKLSQSLSLTCSVTGYSITSGYYWNWIRQFPGNKLEWMGHISYDGNNNYNPSLKNRISITRDTSKNQFFLKLNSVTTEDTATYYCARENYSNYYFDYWGQGTTLTVSS
VL: DIVLTQSPASLAVSLGQRATISCRASQSVSKSSYTYIHWYQQKPGQPPKLLIKYASILQSGVPARFSGSGSGTDFTLNFHPVEEEDTATYYCQHSWEIPYTFGGGTKLEIK
notes: as for B1
For B6, the binding result [1] was “no binding (tested: 100 nM)”, the Kd (Human CD19-his protein) was 8.47 nM and the koff (Human CD19-his protein) was 0.000621 s⁻¹. The kon (Human CD19-his protein) was 73400 M⁻¹ s⁻¹.

B7: F3.5.1 (antibody, human IgG1, V domains shown)
VH: QAQLQQSGPELVKPGASVKISCKASGYAFSGSWMNWVQQRPGKGLEWIGRIYPGDGDTYYNGKFKDKAILTADKSSSTAYMQLSSLTSEDSAVYFCAQLRYRYVMDYWGQGTSVTVSS
VL: DIVLTQSPASLAVSLGQRATISCRASESVSIHGSHLMHWYQQKPGQPPRLLIYAASNLESGVPARFSGSGSETDFTLNIHPVEEEDAATYFCQQGIKDPYTFGGGTKLEIK
notes: as for B1
In the case of B7, the binding result [1] is reported as “no binding (tested: 100 nM)”, the Kd (Human CD19-his protein) is reported as 0.543 nM and the koff (Human CD19-his protein) is reported as 8.47e-05 s⁻¹. For the same binder, the kon (Human CD19-his protein) was 156000 M⁻¹ s⁻¹.
